Assay results published in publication PMC9646879, “Cryo-EM reveals the architecture of the PELP1-WDR18 molecular scaffold” (Nature Communications, 2022).

B1: C-terminally HA-tagged WDR18 (full length) (natural protein, human, UniProt Q9BV38 1-432, looked up)
chain: MAAPMEVAVCTDSAAPMWSCIVWELHSGANLLTYRGGQAGPRGLALLNGEYLLAAQLGKNYISAWELQRKDQLQQKIMCPGPVTCLTASPNGLYVLAGVAESIHLWEVSTGNLLVILSRHYQDVSCLQFTGDSSHFISGGKDCLVLVWSLCSVLQADPSRIPAPRHVWSHHALPITDLHCGFGGPLARVATSSLDQTVKLWEVSSGELLLSVLFDVSIMAVTMDLAEHHMFCGGSEGSIFQVDLFTWPGQRERSFHPEQDAGKVFKGHRNQVTCLSVSTDGSVLLSGSHDETVRLWDVQSKQCIRTVALKGPVTNAAILLAPVSMLSSDFRPSLPLPHFNKHLLGAEHGDEPRHGGLTLRLGLHQQGSEPSYLDRTEQLQAVLCSTMEKSVLGGQDQLRVRVTELEDEVRNLRKINRDLFDFSTRFITRPAK
notes: WDR18, human, full length; The HA tag is stated for the cryo-EM sample; Two copies stand in the heterotetramer; source: HEK293FT, transiently transfected; in lysate (co-IP) and co-purified with FLAG-tagged PELP1 constructs on anti-FLAG gel (cryo-EM, cross-linking); not shown: HA, C-terminal, kept
B2: N-terminally FLAG-tagged PELP1 Rix1 domain (1-642aa) (domain or fragment)
chain: not shown
notes: PELP1, human, N-terminal Rix1 domain, residues 1-642; Two copies stand in the PELP1-WDR18 heterotetramer of the cryo-EM structure; also called Rix1 domain of PELP1; source: HEK293FT, transiently transfected; not shown: FLAG, N-terminal, kept
B3: epitope-tagged SENP3 (enzyme)
chain: not shown
notes: SENP3, human; Blots used anti-HA, anti-GFP and anti-MYC antibodies; also called SUMO protease SENP3; source: HEK293FT, transiently transfected; in lysate (co-IP) and co-purified with C-terminal FLAG-tagged PELP1 (cross-linking)

Key:
[1] = biological target: B2; test: cross-linking; BS3 cross-linking with mass spectrometry of the PELP1 Rix1 domain-WDR18 sub-complex purified via the N-terminal FLAG tag; 6.0 uM complex, 1.0 mM BS3, 50 mM Hepes pH 7.3, 600 mM NaCl, 5 mM MgCl2, 5% glycerol, room temperature 10 min; conditions: both partners purified
[2] = biological target: T1, C-terminal FLAG-tagged PELP1 (full length) (human, UniProt Q8IZL8 1-1130); test: cross-linking; BS3 cross-linking with mass spectrometry of the Rix1 complex purified via the C-terminal FLAG tag on full-length PELP1; 2.0 uM complex, 50 mM Hepes pH 7.3, 600 mM NaCl, 5 mM MgCl2, 5% glycerol, room temperature 10 min; BS3 1.2 mM (methods) or 0.12 mM (results); conditions: both partners purified
T1 construct: also called C-terminal PELP1 IP; source: HEK293FT, transiently transfected; in lysate (co-IP) and purified with the Rix1 complex via the C-terminal FLAG tag (cross-linking); not shown: FLAG, C-terminal, kept
T1 sequence (Q8IZL8 whole entry): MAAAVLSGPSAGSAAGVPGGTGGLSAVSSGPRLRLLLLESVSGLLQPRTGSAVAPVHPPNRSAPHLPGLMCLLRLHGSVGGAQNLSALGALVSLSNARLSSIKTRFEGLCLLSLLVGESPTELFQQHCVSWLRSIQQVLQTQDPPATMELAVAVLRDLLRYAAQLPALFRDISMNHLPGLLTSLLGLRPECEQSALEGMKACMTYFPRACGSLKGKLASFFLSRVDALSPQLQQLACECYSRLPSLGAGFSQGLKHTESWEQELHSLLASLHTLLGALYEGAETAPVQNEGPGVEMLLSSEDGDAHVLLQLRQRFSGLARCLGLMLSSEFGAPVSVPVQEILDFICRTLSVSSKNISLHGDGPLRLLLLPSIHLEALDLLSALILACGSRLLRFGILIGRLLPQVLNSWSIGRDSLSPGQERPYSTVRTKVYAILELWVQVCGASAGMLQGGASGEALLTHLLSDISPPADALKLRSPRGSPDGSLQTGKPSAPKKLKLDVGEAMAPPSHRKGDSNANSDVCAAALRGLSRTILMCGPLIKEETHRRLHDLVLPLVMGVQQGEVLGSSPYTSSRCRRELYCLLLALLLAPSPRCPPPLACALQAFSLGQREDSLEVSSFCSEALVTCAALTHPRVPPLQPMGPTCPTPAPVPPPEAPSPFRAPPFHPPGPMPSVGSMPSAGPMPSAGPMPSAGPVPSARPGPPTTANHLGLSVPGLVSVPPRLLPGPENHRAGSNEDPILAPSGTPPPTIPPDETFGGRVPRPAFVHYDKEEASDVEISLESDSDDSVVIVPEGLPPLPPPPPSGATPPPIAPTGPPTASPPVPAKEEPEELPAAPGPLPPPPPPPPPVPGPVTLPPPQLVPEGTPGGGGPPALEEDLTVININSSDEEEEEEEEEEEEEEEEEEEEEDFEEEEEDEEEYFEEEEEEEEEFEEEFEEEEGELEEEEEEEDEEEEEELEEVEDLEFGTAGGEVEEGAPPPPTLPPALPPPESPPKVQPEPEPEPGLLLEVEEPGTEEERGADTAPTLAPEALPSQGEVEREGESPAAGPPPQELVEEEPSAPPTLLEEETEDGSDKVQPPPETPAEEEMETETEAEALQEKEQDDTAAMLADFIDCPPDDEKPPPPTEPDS

[3] = biological target: B3; test: as above; conditions: both partners purified
[4] = biological target: the molecule itself; test: cryo-EM structure; PELP1 Rix1 domain and WDR18 co-expressed in HEK293FT and co-purified on anti-FLAG gel; 150 mM NaCl, 50 mM Hepes pH 7.7, 5 mM MgCl2; 0.24 mg/ml; C2 symmetry, 2.7 Å

| binding result [1] | binding result [2] | binding result [3] | Binder | stoichiometry N [4] |
| --- | --- | --- | --- | --- |
| binds | binds | binds | B1 | – |
| – | – | – | B2 | 2 |
| – | binds | – | B3 | – |
